Measured values taken from US20240124539A1 (NEW YORK UNIVERSITY, published 2024).
Positions of bridges follow the written chain, without caps; N, C: chain ends. Non-standard residues stand in square brackets, D forms with d. Primed or numbered codes have the meaning given here. Chains are numbered I, II in the order given. *: point of attachment. dibenzylether crosslinker″ = crosslinker alkylating both cysteine thiols, drawn in Scheme 1 and; dibenzylether crosslinker = scaffold alkylating both cysteine thiols (drawn in Scheme 1 and; dibenzylether crosslinker(3) = scaffold alkylating both cysteine thiols (Scheme 1; FITC = O=C1OC2(c3ccc(O)cc3Oc3cc(O)ccc32)c2ccc(NC(=S)*)cc21; FITC′ = fluorescein isothiocyanate, linked via thiourea; βAla = NCCC(=O)O

B1: CHD^Sos-3 (designed binder)
chain 1: Ac-AIGRLCTEILRLRNGA-NH2
chain 2: Ac-LAWRLRELERELARLC-NH2
modifications: linker I:6-II:16 via dibenzylether crosslinker(3)
notes: also called CHC^Sos-3; CHD-3
B2: FITC-CHD^Sos-2 (designed binder)
chain 1: Ac-WIGRLCTEILRLRNGN-NH2
chain 2: {FITC′}-A[βAla]LAWRLRELERELARLC-NH2
modifications: linker I:6-II:18 via dibenzylether crosslinker; not fully specified
notes: Crosslinked helix dimer; form used in the fluorescence polarization assay; also called CHC^Sos-2 (fluorescein-derivatized); CHD-2
B3: FITC-CHD^Sos-4 (designed binder)
chain 1: Ac-WIGRLCTEILRLRNGN-NH2
chain 2: {FITC′}-A[βAla]LAWALRELERELARLC-NH2
modifications: linker I:6-II:18 via dibenzylether crosslinker; not fully specified
notes: Crosslinked helix dimer; form used in the fluorescence polarization assay; also called CHC^Sos-4 (fluorescein-derivatized); CHD-4
B4: FITC-CHD^Sos-6 (designed binder)
chain 1: Ac-WIGRLCTEIRRLRNGN-NH2
chain 2: {FITC}-A[βAla]LAWRLRELERELARLC-NH2
modifications: linker I:6-II:18 via dibenzylether crosslinker″; not fully specified
notes: Crosslinked helix dimer; form used in the fluorescence polarization assay; also called CHC^Sos-6 (fluorescein-derivatized)

How the values were obtained:
[1] = target: T1, fluorescently-labeled wild-type H-Ras-GDP (MST) (UniProt P01112 1-166, cysteine-reactive dye (Monolith RED-MALEIMIDE 2nd Generation or AFDye 647 maleimide) on cysteine, degree of label 0.43); assay: microscale thermophoresis (column MST of the drawn table); fluorescently labelled wild-type H-Ras-GDP with serial dilutions of the unlabelled CHD
T1 construct: range 1-166; also called fluorescently-labeled Ras; wild-type H-Ras labeled with AFDye 647; not shown: N-terminal His6 tag from pProEx HTb

[2] = target: T2, wild-type His6-tagged H-Ras (1-166) pre-loaded with GDP (UniProt P01112 1-166); assay: fluorescence polarization, fluorescein-labelled CHD, His6-H-Ras-GDP titrated
T2 construct: range 1-166; also called His6-H-Ras-GDP; not shown: N-terminal His6 tag with TEV site from the pProEx HTb vector

[3] = target: T2, wild-type His6-tagged H-Ras (1-166) …; assay: fluorescence polarization, fluorescein-labelled CHD (15 nM), His6-H-Ras-GDP titrated
Protocol: (§1) The generated binding affinity (KD) values for each compound are from biological triplicate studies and were determined via fitting to a sigmoidal dose-response nonlinear regression model on Graphpad Prism 6.

[4] = target: T2, wild-type His6-tagged H-Ras (1-166) …; assay: direct fluorescence polarization; fluorescein-labelled CHD titrated with GDP-loaded WT H-Ras
Protocol: as §1

Binder	Kd [1] [µM]	fold enhancement in binding affinity over CHC^Sos-1 [2] [fold]	Kd [3] [µM]	Kd [4] [µM]	fold reduction in affinity against CHC^Sos-5 [2] [fold]
B1	> 10	–	–	–	–
B2	–	10	2.8	2.79	–
B3	–	–	40	40.4	–
B4	–	–	8.6	–	4
